The labels stand for the following.
B1: library; a variant is named by its letters at N, in order (parent)
chain: GCUGUCACCGGUGCUUGGUACGUUAUAUUCAGCCGGUCUGAUGAGUCUNNNNNNAGACGAAACAGC

± gives the standard deviation of the averaged measurements.

The variants in data set [1] derive from B1. The data set is described as follows: normalized RNA/DNA level without ligand (relative to sTRSVctl = 100) (log10 (% of sTRSVctl)); HEK293T overexpressing SLC46A1; higher = less ribozyme self-cleavage, higher mRNA level. As to conditions: without (6R,S)-folinic acid; ligand present: no. Put shortly:
(§1)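 Library plasmids carrying ribozyme switches linked to mCherry, or to eGFP in some ligand experiments, were transfected into HEK293T at 4 µg per 6-well well, with any ligand added 1 h earlier. Seventy-two hours on, total RNA was extracted with EDTA and reverse-transcribed, amplified, barcoded and sequenced. RNA level was RNA over DNA reads normalized to a spiked-in non-cleaving sequence or to the top sequences, then scaled and log-transformed. The top set was 25 sequences, the transform was ×100 and log10, and sequences needed ≥100 DNA reads.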

Variants of B1 are the subject of data set [2]. Nature of the data set: normalized RNA/DNA level with ligand (relative to sTRSVctl = 100) (log10 (% of sTRSVctl)); HEK293T overexpressing SLC46A1; ligand concentration (+) RNA-Seq: 6 mM; higher = less ribozyme self-cleavage, higher mRNA level. The note with it: with (6R,S)-folinic acid; ligand present: yes. Put shortly:
as §1

As to CACCUG, the “normalized RNA/DNA level without ligand (log10)” value in data set [1] stood at 2.04 ± 0.023. Also, the “normalized RNA/DNA level with ligand (log10)” value in data set [2] turned out to be 2.02 ± 0.022.
For CACCUC, in that order: 2.02 ± 0.021 and 1.99 ± 0.027.
For CACCUU, in that order: 2.027 ± 0.0059 and 2.01 ± 0.025.
Taken in the same sequence, the figures for UACGAA were 1.913 ± 0.0081 and 1.99 ± 0.03.
Turning to CACGCC, the “normalized RNA/DNA level without ligand (log10)” value in data set [1] is 2.041 ± 0.011. Moreover, the “normalized RNA/DNA level with ligand (log10)” value in data set [2] was determined as 1.99 ± 0.047.
Taken in the same sequence, the figures for CACGCU were 2.042 ± 0.0097 and 2.034 ± 0.011.
For CACGCG, in that order: 2 ± 0.023 and 1.997 ± 0.0065.
Taken in the same sequence, the figures for UAACAU were 1.956 ± 0.016 and 2 ± 0.023.
AACUCU: the “normalized RNA/DNA level without ligand (log10)” value in data set [1] was 2.0187 ± 0.0003. Besides, the “normalized RNA/DNA level with ligand (log10)” value in data set [2] is 2.02 ± 0.031.
As to AACUCA, the “normalized RNA/DNA level without ligand (log10)” value in data set [1] worked out at 2.03 ± 0.0039. The “normalized RNA/DNA level with ligand (log10)” value in data set [2] is 2.003 ± 0.016.
On to AACUCC, for which the “normalized RNA/DNA level without ligand (log10)” value in data set [1] was 2.06 ± 0.031. Moreover, in data set [2], the “normalized RNA/DNA level with ligand (log10)” value was determined as 2.01 ± 0.032.
Taken in the same sequence, the figures for AAACUC were 2.0456 ± 0.00044 and 2.03 ± 0.049.
On to AAACUA, for which the “normalized RNA/DNA level without ligand (log10)” value in data set [1] was 1.9744 ± 0.0006. Further, the “normalized RNA/DNA level with ligand (log10)” value in data set [2] was 2 ± 0.038.
For AAACUU, the “normalized RNA/DNA level without ligand (log10)” value in data set [1] was determined as 2.007 ± 0.0031. Further, in data set [2], the “normalized RNA/DNA level with ligand (log10)” value stood at 2.02 ± 0.024.
Turning to GACGGC, the “normalized RNA/DNA level without ligand (log10)” value in data set [1] was determined as 2.03 ± 0.016. Besides, the “normalized RNA/DNA level with ligand (log10)” value in data set [2] turned out to be 2.04 ± 0.072.
Taken in the same sequence, the figures for CACUCG were 2.01 ± 0.03 and 2 ± 0.024.
Taken in the same sequence, the figures for CACUCU were 2.057 ± 0.015 and 2.043 ± 0.018.
As to CACUCC, in data set [1], the “normalized RNA/DNA level without ligand (log10)” value is 2.044 ± 0.0027. Moreover, the “normalized RNA/DNA level with ligand (log10)” value in data set [2] is 2.02 ± 0.04.
Taken in the same sequence, the figures for CACUCA were 2.013 ± 0.0028 and 2.03 ± 0.025.
Taken in the same sequence, the figures for AAAUCA were 1.996 ± 0.0046 and 2.02 ± 0.047.
Taken in the same sequence, the figures for AAAUCU were 2.0432 ± 0.0014 and 2.03 ± 0.048.
UAAGUA: in data set [1], the “normalized RNA/DNA level without ligand (log10)” value amounted to 1.896 ± 0.0077. Also, the “normalized RNA/DNA level with ligand (log10)” value in data set [2] was found to be 1.98 ± 0.034.
Taken in the same sequence, the figures for CAAUGG were 1.94 ± 0.0094 and 1.983 ± 0.0083.
Taken in the same sequence, the figures for CAAUGU were 1.981 ± 0.0089 and 1.98 ± 0.044.
For CAAUGC, in that order: 2.03 ± 0.027 and 2.023 ± 0.02.
Take UACGUU: in data set [1], the “normalized RNA/DNA level without ligand (log10)” value was 1.971 ± 0.0048. The “normalized RNA/DNA level with ligand (log10)” value in data set [2] was 1.997 ± 0.014.
For UACGUC, in that order: 2.07 ± 0.019 and 2.06 ± 0.066.
Taken in the same sequence, the figures for UACGUA were 1.918 ± 0.0029 and 1.98 ± 0.037.
Taken in the same sequence, the figures for AAAUUA were 1.97 ± 0.012 and 1.99 ± 0.03.
With UACAUU, the “normalized RNA/DNA level without ligand (log10)” value in data set [1] is 2.005 ± 0.0053. The “normalized RNA/DNA level with ligand (log10)” value in data set [2] was found to be 1.99 ± 0.042.
For UACAUC, in that order: 2.0657 ± 0.0019 and 2.04 ± 0.032.
As to CACGUG, the “normalized RNA/DNA level without ligand (log10)” value in data set [1] was found to be 2.03 ± 0.022. In data set [2], the “normalized RNA/DNA level with ligand (log10)” value was 2.05 ± 0.05.
For CACGUU, in that order: 2.0092 ± 0.00093 and 1.99 ± 0.038.
Turning to CACGUC, the “normalized RNA/DNA level without ligand (log10)” value in data set [1] stood at 2.023 ± 0.0096. In addition, the “normalized RNA/DNA level with ligand (log10)” value in data set [2] was determined as 1.987 ± 0.013.
Regarding GACCAC, in data set [1], the “normalized RNA/DNA level without ligand (log10)” value came to 2.001 ± 0.012. Besides, the “normalized RNA/DNA level with ligand (log10)” value in data set [2] came out at 2.002 ± 0.0054.
Taken in the same sequence, the figures for GACCAU were 2.017 ± 0.0083 and 2.01 ± 0.027.
On to GACCAG, for which the “normalized RNA/DNA level without ligand (log10)” value in data set [1] was 2.004 ± 0.013. Moreover, in data set [2], the “normalized RNA/DNA level with ligand (log10)” value turned out to be 2.022 ± 0.012.
Consider GAAUUU, for which the “normalized RNA/DNA level without ligand (log10)” value in data set [1] was found to be 2.029 ± 0.01. The “normalized RNA/DNA level with ligand (log10)” value in data set [2] was found to be 2.01 ± 0.022.
Taken in the same sequence, the figures for GAAUUC were 2.01 ± 0.0081 and 2.02 ± 0.024.
For CAACCC, in that order: 2.073 ± 0.0092 and 2.03 ± 0.079.
CAACCU: the “normalized RNA/DNA level without ligand (log10)” value in data set [1] turned out to be 2.051 ± 0.012. For the same variant, the “normalized RNA/DNA level with ligand (log10)” value in data set [2] is 2.05 ± 0.035.
With CAACCA, in data set [1], the “normalized RNA/DNA level without ligand (log10)” value was determined as 2.032 ± 0.015. Besides, in data set [2], the “normalized RNA/DNA level with ligand (log10)” value stood at 2.019 ± 0.013.
For CAACCG, in that order: 2.0386 ± 0.00089 and 2.04 ± 0.02.
Taken in the same sequence, the figures for AACACA were 1.99 ± 0.011 and 2.01 ± 0.037.
For AACACC, in that order: 2.046 ± 0.015 and 2.05 ± 0.086.
Take AACACU: in data set [1], the “normalized RNA/DNA level without ligand (log10)” value turned out to be 2 ± 0.032. For the same variant, the “normalized RNA/DNA level with ligand (log10)” value in data set [2] was 2 ± 0.043.
Taken in the same sequence, the figures for UACUAA were 1.973 ± 0.0021 and 2.02 ± 0.0061.
Consider UACUAC, for which the “normalized RNA/DNA level without ligand (log10)” value in data set [1] is 2.022 ± 0.0093. Moreover, the “normalized RNA/DNA level with ligand (log10)” value in data set [2] worked out at 2.011 ± 0.0087.
Take UACUAG: the “normalized RNA/DNA level without ligand (log10)” value in data set [1] was 1.828 ± 0.016. Further, in data set [2], the “normalized RNA/DNA level with ligand (log10)” value is 1.99 ± 0.031.
On to CAAGGU, for which the “normalized RNA/DNA level without ligand (log10)” value in data set [1] turned out to be 1.976 ± 0.0082. In addition, in data set [2], the “normalized RNA/DNA level with ligand (log10)” value stood at 1.97 ± 0.024.
Taken in the same sequence, the figures for CAAGGC were 1.993 ± 0.019 and 1.99 ± 0.035.
With GACGAC, the “normalized RNA/DNA level without ligand (log10)” value in data set [1] worked out at 1.956 ± 0.004. In addition, the “normalized RNA/DNA level with ligand (log10)” value in data set [2] came to 2.009 ± 0.018.
For CACAGG, in that order: 1.95 ± 0.026 and 2 ± 0.048.
With CACAGC, the “normalized RNA/DNA level without ligand (log10)” value in data set [1] was found to be 1.978 ± 0.0044. For the same variant, the “normalized RNA/DNA level with ligand (log10)” value in data set [2] came to 1.96 ± 0.021.
Taken in the same sequence, the figures for CACAGU were 1.999 ± 0.017 and 2 ± 0.077.
Taken in the same sequence, the figures for CACAGA were 2.03 ± 0.015 and 2.01 ± 0.022.
CACUAG: in data set [1], the “normalized RNA/DNA level without ligand (log10)” value stood at 1.949 ± 0.01. The “normalized RNA/DNA level with ligand (log10)” value in data set [2] is 2.02 ± 0.034.
For CACUAC, in that order: 2.0166 ± 0.00023 and 2.01 ± 0.074.

The record behind these values is the supplement of paper PMC6757056.
